Test results published in US20260242735A1 (UNIVERSIT T BASEL, published 2026).

Key:
Assay in all cases: flow cytometry, transfected cells
human CD33 I47W = human CD33 I47W (human, UniProt P20138 18-364)
human CD33 R122F = human CD33 R122F (human, UniProt P20138 18-364)
human CD33 D51K = human CD33 D51K (human, UniProt P20138 18-364)
human CD33 I47Q = human CD33 I47Q (human, UniProt P20138 18-364)
human CD33 Y49P = human CD33 Y49P (human, UniProt P20138 18-364)
human CD33 F44I = human CD33 F44I (human, UniProt P20138 18-364)
human CD33 F44I, sequence (P20138 18-364 F44I limits assumed): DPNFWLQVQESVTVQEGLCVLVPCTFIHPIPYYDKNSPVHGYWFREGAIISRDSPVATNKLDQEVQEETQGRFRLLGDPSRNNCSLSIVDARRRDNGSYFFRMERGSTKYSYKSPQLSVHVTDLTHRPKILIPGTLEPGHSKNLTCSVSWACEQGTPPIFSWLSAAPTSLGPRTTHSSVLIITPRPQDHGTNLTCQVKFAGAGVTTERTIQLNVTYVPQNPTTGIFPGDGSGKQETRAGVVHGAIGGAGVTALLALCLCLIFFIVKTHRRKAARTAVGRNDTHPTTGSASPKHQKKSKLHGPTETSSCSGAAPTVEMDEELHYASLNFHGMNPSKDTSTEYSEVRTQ

human CD33 I47E = human CD33 I47E (human, UniProt P20138 18-364)
human CD33 I47E, sequence (P20138 18-364 I47E limits assumed): as the sequence (P20138 18-364 F44I limits assumed) above, with I27F, I30E counted along it

human CD33 I47P = human CD33 I47P (human, UniProt P20138 18-364)
human CD33 I47P, sequence (P20138 18-364 I47P limits assumed): as the sequence (P20138 18-364 F44I limits assumed) above, with I27F, I30P counted along it

human CD33 Y49G = human CD33 Y49G (human, UniProt P20138 18-364)
human CD33 Y49G, sequence (P20138 18-364 Y49G limits assumed): as the sequence (P20138 18-364 F44I limits assumed) above, with I27F, Y32G counted along it

human CD33 F44V = human CD33 F44V (human, UniProt P20138 18-364)
human CD33 F44V, sequence (P20138 18-364 F44V limits assumed): as the sequence (P20138 18-364 F44I limits assumed) above, with I27V counted along it

human CD33 Y49C = human CD33 Y49C (human, UniProt P20138 18-364)
human CD33 Y49C, sequence (P20138 18-364 Y49C limits assumed): as the sequence (P20138 18-364 F44I limits assumed) above, with I27F, Y32C counted along it

human CD33 I47R = human CD33 I47R (human, UniProt P20138 18-364)
human CD33 I47R, sequence (P20138 18-364 I47R limits assumed): as the sequence (P20138 18-364 F44I limits assumed) above, with I27F, I30R counted along it

human CD33 F44Q = human CD33 F44Q (human, UniProt P20138 18-364)
human CD33 F44Q, sequence (P20138 18-364 F44Q limits assumed): as the sequence (P20138 18-364 F44I limits assumed) above, with I27Q counted along it

human CD33 R122I = human CD33 R122I (human, UniProt P20138 18-364)
human CD33 R122I, sequence (P20138 18-364 R122I limits assumed): as the sequence (P20138 18-364 F44I limits assumed) above, with I27F, R105I counted along it

human CD33 R122T = human CD33 R122T (human, UniProt P20138 18-364)
human CD33 R122T, sequence (P20138 18-364 R122T limits assumed): as the sequence (P20138 18-364 F44I limits assumed) above, with I27F, R105T counted along it

human CD33 F44H = human CD33 F44H (human, UniProt P20138 18-364)
human CD33 F44H, sequence (P20138 18-364 F44H limits assumed): as the sequence (P20138 18-364 F44I limits assumed) above, with I27H counted along it

human CD33 I47S = human CD33 I47S (human, UniProt P20138 18-364)
human CD33 I47S, sequence (P20138 18-364 I47S limits assumed): as the sequence (P20138 18-364 F44I limits assumed) above, with I27F, I30S counted along it

human CD33 F44P = human CD33 F44P (human, UniProt P20138 18-364)
human CD33 F44P, sequence (P20138 18-364 F44P limits assumed): as the sequence (P20138 18-364 F44I limits assumed) above, with I27P counted along it

human CD33 I47N = human CD33 I47N (human, UniProt P20138 18-364)
human CD33 I47N, sequence (P20138 18-364 I47N limits assumed): as the sequence (P20138 18-364 F44I limits assumed) above, with I27F, I30N counted along it

human CD33 F44S = human CD33 F44S (human, UniProt P20138 18-364)
human CD33 F44S, sequence (P20138 18-364 F44S limits assumed): as the sequence (P20138 18-364 F44I limits assumed) above, with I27S counted along it

human CD33 F44T = human CD33 F44T (human, UniProt P20138 18-364)
human CD33 F44T, sequence (P20138 18-364 F44T limits assumed): as the sequence (P20138 18-364 F44I limits assumed) above, with I27T counted along it

human CD33 I47G = human CD33 I47G (human, UniProt P20138 18-364)
human CD33 I47G, sequence (P20138 18-364 I47G limits assumed): as the sequence (P20138 18-364 F44I limits assumed) above, with I27F, I30G counted along it

human CD33 F44L = human CD33 F44L (human, UniProt P20138 18-364)
human CD33 F44L, sequence (P20138 18-364 F44L limits assumed): as the sequence (P20138 18-364 F44I limits assumed) above, with I27L counted along it

human CD33 Y49D = human CD33 Y49D (human, UniProt P20138 18-364)
human CD33 Y49D, sequence (P20138 18-364 Y49D limits assumed): as the sequence (P20138 18-364 F44I limits assumed) above, with I27F, Y32D counted along it

human CD33 I47L = human CD33 I47L (human, UniProt P20138 18-364)
human CD33 I47L, sequence (P20138 18-364 I47L limits assumed): as the sequence (P20138 18-364 F44I limits assumed) above, with I27F, I30L counted along it

human CD33 R122S = human CD33 R122S (human, UniProt P20138 18-364)
human CD33 R122S, sequence (P20138 18-364 R122S limits assumed): as the sequence (P20138 18-364 F44I limits assumed) above, with I27F, R105S counted along it

human CD33 K52D = human CD33 K52D (human, UniProt P20138 18-364)
human CD33 K52D, sequence (P20138 18-364 K52D limits assumed): as the sequence (P20138 18-364 F44I limits assumed) above, with I27F, K35D counted along it

human CD33 F44E = human CD33 F44E (human, UniProt P20138 18-364)
human CD33 F44E, sequence (P20138 18-364 F44E limits assumed): as the sequence (P20138 18-364 F44I limits assumed) above, with I27E counted along it

human CD33 I47Y = human CD33 I47Y (human, UniProt P20138 18-364)
human CD33 I47Y, sequence (P20138 18-364 I47Y limits assumed): as the sequence (P20138 18-364 F44I limits assumed) above, with I27F, I30Y counted along it

human CD33 I47F = human CD33 I47F (human, UniProt P20138 18-364)
human CD33 I47F, sequence (P20138 18-364 I47F limits assumed): as the sequence (P20138 18-364 F44I limits assumed) above, with I27F, I30F counted along it

human CD33 F44D = human CD33 F44D (human, UniProt P20138 18-364)
human CD33 F44D, sequence (P20138 18-364 F44D limits assumed): as the sequence (P20138 18-364 F44I limits assumed) above, with I27D counted along it

human CD33 I47T = human CD33 I47T (human, UniProt P20138 18-364)
human CD33 I47T, sequence (P20138 18-364 I47T limits assumed): as the sequence (P20138 18-364 F44I limits assumed) above, with I27F, I30T counted along it

human CD33 R122E = human CD33 R122E (human, UniProt P20138 18-364)
human CD33 R122E, sequence (P20138 18-364 R122E limits assumed): as the sequence (P20138 18-364 F44I limits assumed) above, with I27F, R105E counted along it

Measured: binding result

human CD33 I47W, sequence (P20138 18-364 I47W limits assumed): as the sequence (P20138 18-364 F44I limits assumed) above, with I27F, I30W counted along it
human CD33 Y49P, sequence (P20138 18-364 Y49P limits assumed): as the sequence (P20138 18-364 F44I limits assumed) above, with I27F, Y32P counted along it
human CD33 I47Q, sequence (P20138 18-364 I47Q limits assumed): as the sequence (P20138 18-364 F44I limits assumed) above, with I27F, I30Q counted along it
human CD33 D51K, sequence (P20138 18-364 D51K limits assumed): as the sequence (P20138 18-364 F44I limits assumed) above, with I27F, D34K counted along it
human CD33 R122F, sequence (P20138 18-364 R122F limits assumed): as the sequence (P20138 18-364 F44I limits assumed) above, with I27F, R105F counted along it

B1: Refmab #2 (antibody, human IgG1, V domains shown)
VH: QVQLVQSGAEVKKPGSSVKVSCKASGGTFSDYAISWVRQAPGQGLEWMGRIIPILGVADYAQKFQGRVTITADKSTRTAYMELSSLRSEDTAVYYCARNWADAFDIWGQGTMVTVSS
VL: DIQLTQSPSSLSASVGDRVTITCRASQGISSVLAWYQQKPGKAPKLLIYDASSLESGVPSRFSGSGSGTDFTLTISSLQPEDFATYYCQQFDSSITFGQGTKLEIK
no binding (tested: below 20%): human CD33 I47W | human CD33 R122F | human CD33 D51K | human CD33 I47Q | human CD33 Y49P | human CD33 F44I | human CD33 I47E | human CD33 I47P | human CD33 Y49G | human CD33 F44V | human CD33 Y49C | human CD33 I47R | human CD33 F44Q | human CD33 R122I | human CD33 R122T | human CD33 F44H | human CD33 I47S | human CD33 F44P | human CD33 I47N | human CD33 F44S | human CD33 F44T | human CD33 I47G | human CD33 F44L | human CD33 Y49D | human CD33 I47L | human CD33 R122S | human CD33 K52D | human CD33 F44E | human CD33 I47Y | human CD33 I47F | human CD33 F44D | human CD33 I47T | human CD33 R122E
